Reference: patent publication US20110166062A1 (INDIANA UNIVERSITY RESEARCH AND TECHNOLOGY, published 2011)
Bridges are numbered along the chain shown (N, C = ends). Primed or numbered codes have the meaning given here. Where no end group is shown, it is not given here. [ ]: non-standard residue; d: D form. PEG 40 kDa″ = polyethylene glycol of 40 kDa covalently attached to the side chain; Aib = CC(C)(N)C(=O)O

T1: GIP receptor (UniProt P48546 22-466)
T1 sequence (looked up): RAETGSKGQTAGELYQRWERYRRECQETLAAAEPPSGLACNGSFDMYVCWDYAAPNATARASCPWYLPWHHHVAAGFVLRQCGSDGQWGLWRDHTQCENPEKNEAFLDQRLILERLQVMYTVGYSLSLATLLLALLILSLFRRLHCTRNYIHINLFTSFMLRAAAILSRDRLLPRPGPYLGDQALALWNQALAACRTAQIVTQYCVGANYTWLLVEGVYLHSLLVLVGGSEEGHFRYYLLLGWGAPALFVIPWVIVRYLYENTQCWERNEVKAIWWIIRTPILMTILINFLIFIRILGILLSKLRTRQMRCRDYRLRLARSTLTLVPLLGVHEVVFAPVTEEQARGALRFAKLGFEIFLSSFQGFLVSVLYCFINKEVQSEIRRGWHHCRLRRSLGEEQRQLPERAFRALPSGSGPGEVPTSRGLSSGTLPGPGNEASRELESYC

T2: GIP receptor (UniProt P48546 22-466)
T2 sequence (looked up): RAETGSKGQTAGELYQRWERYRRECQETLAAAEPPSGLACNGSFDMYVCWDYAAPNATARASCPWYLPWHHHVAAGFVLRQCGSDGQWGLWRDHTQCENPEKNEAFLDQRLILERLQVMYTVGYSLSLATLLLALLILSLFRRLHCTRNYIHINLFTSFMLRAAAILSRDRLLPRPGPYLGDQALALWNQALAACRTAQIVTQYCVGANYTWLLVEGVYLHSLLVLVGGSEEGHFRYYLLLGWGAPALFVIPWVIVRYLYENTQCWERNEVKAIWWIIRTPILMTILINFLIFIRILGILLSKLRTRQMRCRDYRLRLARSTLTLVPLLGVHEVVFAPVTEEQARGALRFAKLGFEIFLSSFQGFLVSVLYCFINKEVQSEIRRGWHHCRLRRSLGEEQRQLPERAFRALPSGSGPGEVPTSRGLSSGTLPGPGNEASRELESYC


Key:
Assay in all cases: cell-based or functional assay
GIP receptor [1] = molecular target: T1, GIP receptor
glucagon receptor [2] = molecular target: glucagon receptor (UniProt P47871 26-477, limits assumed)
Target sequence in this assay (P47871 26-477 limits assumed): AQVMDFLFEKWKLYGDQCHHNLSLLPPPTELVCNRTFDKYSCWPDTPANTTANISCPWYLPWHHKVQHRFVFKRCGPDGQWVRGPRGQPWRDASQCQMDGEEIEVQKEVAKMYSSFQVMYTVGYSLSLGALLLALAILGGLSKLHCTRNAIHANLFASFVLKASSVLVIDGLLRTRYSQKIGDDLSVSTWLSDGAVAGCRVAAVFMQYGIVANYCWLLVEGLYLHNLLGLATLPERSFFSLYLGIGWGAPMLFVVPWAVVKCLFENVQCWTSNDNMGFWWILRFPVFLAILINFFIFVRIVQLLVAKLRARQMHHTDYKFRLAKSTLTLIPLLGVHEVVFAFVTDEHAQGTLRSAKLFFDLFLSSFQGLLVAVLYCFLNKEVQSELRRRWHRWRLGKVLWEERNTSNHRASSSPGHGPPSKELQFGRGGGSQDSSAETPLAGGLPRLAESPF

GLP-1 receptor [3] = molecular target: GLP-1 receptor (UniProt P43220 24-463, limits assumed)
GLP-1 receptor [4] = molecular target: GLP-1 receptor (UniProt P43220 24-463, limits assumed); remark: listed apart in the source
glucagon receptor [5] = molecular target: glucagon receptor (UniProt P47871 26-477, limits assumed); remark: listed apart in the source
Target sequence in this assay (P47871 26-477 limits assumed): as above

GIP receptor [6] = molecular target: T2, GIP receptor; remark: listed apart in the source

Binder | EC50, nM; GIP Receptor (GIP receptor [1]) [nM] | relative activity; GIP Receptor (GIP receptor [1]) [%] | EC50, nM; Glucagon Receptor (glucagon receptor [2]) [nM] | relative activity; Glucagon Receptor (glucagon receptor [2]) [%] | EC50, nM; GLP-1 Receptor (GLP-1 receptor [3]) [nM] | relative activity; GLP-1 Receptor (GLP-1 receptor [3]) [%] | EC50 (GLP-1 receptor [4]) [pM] | relative activity (GLP-1 receptor [4]) [%] | EC50 (glucagon receptor [5]) [pM] | relative activity (glucagon receptor [5]) [%] | EC50 (GIP receptor [6]) [pM] | relative activity (GIP receptor [6]) [%]
Y[Aib]QGTFTSDYSIYLDKQAA[Aib]EFVNWLMNGGPSSGAPPPSK-NH2 (N-terminus assumed; SMILES CC[C@H](C)[C@H](NC(=O)[C@H](CO)NC(=O)[C@H](Cc1ccc(O)cc1)NC(=O)[C@H](CC(=O)O)NC(=O)[C@H](CO)NC(=O)[C@@H](NC(=O)[C@H](Cc1ccccc1)NC(=O)[C@@H](NC(=O)CNC(=O)[C@H](CCC(N)=O)NC(=O)C(C)(C)NC(=O)[C@@H](N)Cc1ccc(O)cc1)[C@@H](C)O)[C@@H](C)O)C(=O)N[C@@H](Cc1ccc(O)cc1)C(=O)N[C@@H](CC(C)C)C(=O)N[C@@H](CC(=O)O)C(=O)N[C@@H](CCCCN)C(=O)N[C@@H](CCC(N)=O)C(=O)N[C@@H](C)C(=O)N[C@@H](C)C(=O)NC(C)(C)C(=O)N[C@@H](CCC(=O)O)C(=O)N[C@@H](Cc1ccccc1)C(=O)N[C@H](C(=O)N[C@@H](CC(N)=O)C(=O)N[C@@H](Cc1c[nH]c2ccccc12)C(=O)N[C@@H](CC(C)C)C(=O)N[C@@H](CCSC)C(=O)N[C@@H](CC(N)=O)C(=O)NCC(=O)NCC(=O)N1CCC[C@H]1C(=O)N[C@@H](CO)C(=O)N[C@@H](CO)C(=O)NCC(=O)N[C@@H](C)C(=O)N1CCC[C@H]1C(=O)N1CCC[C@H]1C(=O)N1CCC[C@H]1C(=O)N[C@@H](CO)C(=O)N[C@@H](CCCCN)C(N)=O)C(C)C) [mt-356] | 0.053 | 25.7 | 0.0869 | 126 | 0.0048 | 224 |  |  |  |  |  | 
Y[Aib]QGTFTSEYSKYLDEQAAKEFVNWLLAGGPSSGAPPPSC-NH2 (lactam 9-12, 16-20; not fully specified) [mt-209] |  |  |  |  |  |  | 2340 | 1.33 | 4660 | 0.9 | 1050 | 1.42
Y[Aib]EGTFTSDYSIYLDEQAAKEFVNWLLAGKGKKNWLKHNITQC-NH2 (lactam 16-20) [mt-206] |  |  |  |  |  |  | 95 |  | 331000 | 0.01 | 115 | 
Y[Aib]QGTFTSDYSIYLDEQAAKEFVNWLLAGKGKKNWLKHNITQC-NH2 (lactam 16-20) [mt-207] |  |  |  |  |  |  | 73 | 42.5 | 3200 | 1.31 | 622 | 2.41
Y[Aib]QGTFTSDYSIYLDEEAVRLFVNWLLAGGPSSGAPPPS-NH2 (N-terminus assumed; SMILES CC[C@H](C)[C@H](NC(=O)[C@H](CO)NC(=O)[C@H](Cc1ccc(O)cc1)NC(=O)[C@H](CC(=O)O)NC(=O)[C@H](CO)NC(=O)[C@@H](NC(=O)[C@H](Cc1ccccc1)NC(=O)[C@@H](NC(=O)CNC(=O)[C@H](CCC(N)=O)NC(=O)C(C)(C)NC(=O)[C@@H](N)Cc1ccc(O)cc1)[C@@H](C)O)[C@@H](C)O)C(=O)N[C@@H](Cc1ccc(O)cc1)C(=O)N[C@@H](CC(C)C)C(=O)N[C@@H](CC(=O)O)C(=O)N[C@@H](CCC(=O)O)C(=O)N[C@@H](CCC(=O)O)C(=O)N[C@@H](C)C(=O)N[C@H](C(=O)N[C@@H](CCCNC(=N)N)C(=O)N[C@@H](CC(C)C)C(=O)N[C@@H](Cc1ccccc1)C(=O)N[C@H](C(=O)N[C@@H](CC(N)=O)C(=O)N[C@@H](Cc1c[nH]c2ccccc12)C(=O)N[C@@H](CC(C)C)C(=O)N[C@@H](CC(C)C)C(=O)N[C@@H](C)C(=O)NCC(=O)NCC(=O)N1CCC[C@H]1C(=O)N[C@@H](CO)C(=O)N[C@@H](CO)C(=O)NCC(=O)N[C@@H](C)C(=O)N1CCC[C@H]1C(=O)N1CCC[C@H]1C(=O)N1CCC[C@H]1C(=O)N[C@@H](CO)C(N)=O)C(C)C)C(C)C) [mt-201] |  |  |  |  |  |  | 12 | 192 | 26700 | 0.24 | 72 | 44.4
[Aib]QGTFTSDYSIYLDEQAAKEFVNWLLAG-NH2 (lactam 15-19; N-terminus assumed; SMILES CC[C@H](C)[C@H](NC(=O)[C@H](CO)NC(=O)[C@H](Cc1ccc(O)cc1)NC(=O)[C@H](CC(=O)O)NC(=O)[C@H](CO)NC(=O)[C@@H](NC(=O)[C@H](Cc1ccccc1)NC(=O)[C@@H](NC(=O)CNC(=O)[C@H](CCC(N)=O)NC(=O)C(C)(C)N)[C@@H](C)O)[C@@H](C)O)C(=O)N[C@@H](Cc1ccc(O)cc1)C(=O)N[C@@H](CC(C)C)C(=O)N[C@@H](CC(=O)O)C(=O)N[C@H]1CCC(=O)NCCCC[C@@H](C(=O)N[C@@H](CCC(=O)O)C(=O)N[C@@H](Cc2ccccc2)C(=O)N[C@H](C(=O)N[C@@H](CC(N)=O)C(=O)N[C@@H](Cc2c[nH]c3ccccc23)C(=O)N[C@@H](CC(C)C)C(=O)N[C@@H](CC(C)C)C(=O)N[C@@H](C)C(=O)NCC(N)=O)C(C)C)NC(=O)[C@H](C)NC(=O)[C@H](C)NC(=O)[C@H](CCC(N)=O)NC1=O) [mt-198] |  |  |  |  |  |  | 13200 | 0.17 | 11900 | 0.53 | 149000 | 0.02
YXEGTFTSDYSIYLDKQAAXEFVNWLLAGGPSSGAPPPSKC (C-terminal amide; acylation at position 40 of each monomer, no spacer; monomers linked via a PEG at C-terminal Cys residues) [mt-376] | 0.0068 |  |  |  | 0.0106 |  |  |  |  |  |  | 
YXEGTFTSDYSIYLDKQAAXEFVNWLLAGGPSSGAPPPSKC (C-terminal amide; acylation at position 40 of each monomer, no spacer; monomers linked via a PEG at C-terminal Cys residues) [mt-377] | 0.0031 |  |  |  | 0.0076 |  |  |  |  |  |  | 
Y[Aib]EGTFTSDYSIYLDEQAAKEFVNWLLAGKGKKNWLKHNITQC(PEG 40 kDa″)-NH2 (lactam 16-20) [mt-208] |  |  |  |  |  |  | 262 |  | 448000 | 0.01 | 313 | 
